Consider 15 molecules from patent US20190241886A1 (ADAGENE, published 2019).

Experiment [1] concerns the target T1, Human CD137 displayed on yeast cells (human, UniProt Q07011 24-186, limits assumed).
T1 construct: Yeast cells displaying human CD137, stained with serial dilutions of antibody; also called human CD137 on the cell surface
The experiment in a line: flow cytometry on yeast cells displaying human CD137; ratio to parental TY21242. The method, then: (§1) The masking efficiency was then measured through flow cytometry. Briefly, yeast cells displaying human CD137 on their surface washed twice with PB SA buffer, and 50 μL (1×10̂6) cells were dispensed into each well of a 96 well plate. Cells were then incubated with 3-fold serial dilutions of antibodies for 1 hour on ice, washed once with PBSA buffer, and then incubated with 100 μL of PE conjugated mouse anti-human Fc (1 μg/ml) for 30 minutes on ice. The cells were then washed once prior to analysis by flow cytometry (Beckman® CytoFlex).
A general note: Flow cytometry measures light scatter and fluorescence of single cells or particles in a stream.

Experiment [2] addresses T1, Human CD137 displayed on yeast cells. Nature of the experiment: flow cytometry on yeast cells displaying human CD137; column headed EC50 / KD (nM). As to the method:
as §1

Experiment [3] has as its target T2, Recombinant human CTLA4-Fc (human, UniProt P16410 36-161, limits assumed).
T2 construct: Coated on the ELISA plate at 1 ug/mL; also called antigen; not shown: Fc part
T2 sequence (looked up): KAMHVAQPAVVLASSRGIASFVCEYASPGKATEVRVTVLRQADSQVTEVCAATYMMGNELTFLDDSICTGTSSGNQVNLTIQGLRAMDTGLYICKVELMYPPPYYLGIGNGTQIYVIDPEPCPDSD
The experiment in a line: ELISA EC50 divided by EC50 of parental TY21580, data batch 2. The method, then: (§2) Recombinant human CTLA4-Fc was diluted to 1μg/mL in PBS and coated on a Maxisorp plate at 4° C. overnight. Plates were blocked with PBS supplemented with 3% non-fat milk at 37° C. for 1 hour. After washing, 100 μL of 3-fold serial dilutions of antibodies were added to each well. After incubation at 37° C. for 1 hour, plates were washed four times, and 100 μL HRP conjugated anti-human IgG (Fab specific) (1:6000 dilution) was added to each well. Plates were incubated at 37° C. for 1 hour, washed four times, and then 50 μL TMB substrate solution was added to each well, and the plate was incubated at room temperature. Absorbance at 450 nm was measured after the reactions were stopped with 50 μL H₂SO₄ per well. The EC₅₀ was evaluated by fitting the ELISA data using the asymmetrical sigmoidal (five-parameter logistic equation) model of GraphPad Prism 6 software.

Experiment [4] has as its target T2, Recombinant human CTLA4-Fc. Nature of the experiment: ELISA EC50 divided by EC50 of parental TY21580, data batch 1. The method, then:
as §2

Experiment [5] has as its target T2, Recombinant human CTLA4-Fc. Nature of the experiment: ELISA EC50 divided by EC50 of parental TY21580, third block of Table 6. As to the method:
as §2
(In an ELISA, binding on a coated surface is turned into a signal by an enzyme label.)

B1: TY21242 (antibody, V domains shown)
VH: EVQLVESGGGLVQPGGSLRLSCAASGFSLSTGGVGVGWIRQAPGKGLEWLALIDWADDKYYSPSLKSRLTISRDNSKNTLYLQLNSLRAEDTAVYYCARGGSDTVIGDWFAYWGQGTLVTVSS
VL: DIQLTQSPSSLSASVGDRVTITCRASQSIGSYLAWYQQKPGKAPKLLIYDASNLETGVPSRFSGSGSGTDFTLTISSLQPEDFATYYCQQGYYLWTFGQGTKVEIK
notes: Anti-human-CD137 antibody; the isotype of the parent is not restated; also called parental antibody TY21242; parental CD137 antibody
For orientation: EC50 means the concentration at which the effect is half-maximal. Take B1: in experiment [1], the Masking efficiency was 1. This molecule also displayed a concentration giving a half-maximal response (EC50) in experiment [2] of 0.28 nM.

B2: TY22591 (antibody, V domains shown)
VH: EVQLVESGGGLVQPGGSLRLSCAASGFSLSTGGVGVGWIRQAPGKGLEWLALIDWADDKYYSPSLKSRLTISRDNSKNTLYLQLNSLRAEDTAVYYCARGGSDTVIGDWFAYWGQGTLVTVSS
VL: EVGSYSSTHAHCHHSPANCISSGRSAGGGGSPLGLAGSGGSDIQLTQSPSSLSASVGDRVTITCRASQSIGSYLAWYQQKPGKAPKLLIYDASNLETGVPSRFSGSGSGTDFTLTISSLQPEDFATYYCQQGYYLWTFGQGTKVEIK
notes: Full IgG4 expressed in mammalian cells, uncleaved
For the molecule B2, in experiment [1], the Masking efficiency was 38.3. The concentration giving a half-maximal response (EC50) in experiment [2] turned out to be 10.8 nM.

B3: TY22598 (antibody, V domains shown)
VH: EVQLVESGGGLVQPGGSLRLSCAASGFSLSTGGVGVGWIRQAPGKGLEWLALIDWADDKYYSPSLKSRLTISRDNSKNTLYLQLNSLRAEDTAVYYCARGGSDTVIGDWFAYWGQGTLVTVSS
VL: EVGSYSNNFASCLWRHRSCADSGRSAGGGGSPLGLAGSGGSDIQLTQSPSSLSASVGDRVTITCRASQSIGSYLAWYQQKPGKAPKLLIYDASNLETGVPSRFSGSGSGTDFTLTISSLQPEDFATYYCQQGYYLWTFGQGTKVEIK
notes: as for B2
Consider B3, for which, in experiment [1], the Masking efficiency is 30.5. This molecule also came in with an EC50 in experiment [2] of 8.61 nM.

B4: TY22596 (antibody, V domains shown)
VH: EVQLVESGGGLVQPGGSLRLSCAASGFSLSTGGVGVGWIRQAPGKGLEWLALIDWADDKYYSPSLKSRLTISRDNSKNTLYLQLNSLRAEDTAVYYCARGGSDTVIGDWFAYWGQGTLVTVSS
VL: EVGSYYHDYDDCRVLPRRCFNSGRSAGGGGSPLGLAGSGGSDIQLTQSPSSLSASVGDRVTITCRASQSIGSYLAWYQQKPGKAPKLLIYDASNLETGVPSRFSGSGSGTDFTLTISSLQPEDFATYYCQQGYYLWTFGQGTKVEIK
notes: as for B2
Consider B4, for which the Masking efficiency in experiment [1] came to 20.8. For the same molecule, in experiment [2], the EC50 came out at 5.86 nM.

B5: TY22599 (antibody, V domains shown)
VH: EVQLVESGGGLVQPGGSLRLSCAASGFSLSTGGVGVGWIRQAPGKGLEWLALIDWADDKYYSPSLKSRLTISRDNSKNTLYLQLNSLRAEDTAVYYCARGGSDTVIGDWFAYWGQGTLVTVSS
VL: EVGSYTDNYDYCPRLRRKCYHSGRSAGGGGSPLGLAGSGGSDIQLTQSPSSLSASVGDRVTITCRASQSIGSYLAWYQQKPGKAPKLLIYDASNLETGVPSRFSGSGSGTDFTLTISSLQPEDFATYYCQQGYYLWTFGQGTKVEIK
notes: as for B2
Turning to B5, the Masking efficiency in experiment [1] came to 348. In experiment [2], this molecule came in with an EC50 of 98.1 nM.

B6: TY22586 (antibody, V domains shown)
VH: EVQLVESGGGLVQPGGSLRLSCAASGFSLSTGGVGVGWIRQAPGKGLEWLALIDWADDKYYSPSLKSRLTISRDNSKNTLYLQLNSLRAEDTAVYYCARGGSDTVIGDWFAYWGQGTLVTVSS
VL: EVGSYPTDLDACADAPNHCHFSGRSAGGGGSPLGLAGSGGSDIQLTQSPSSLSASVGDRVTITCRASQSIGSYLAWYQQKPGKAPKLLIYDASNLETGVPSRFSGSGSGTDFTLTISSLQPEDFATYYCQQGYYLWTFGQGTKVEIK
notes: as for B2
Regarding B6, the Masking efficiency in experiment [1] turned out to be 300 fold.

B7: TY22594 (antibody, V domains shown)
VH: EVQLVESGGGLVQPGGSLRLSCAASGFSLSTGGVGVGWIRQAPGKGLEWLALIDWADDKYYSPSLKSRLTISRDNSKNTLYLQLNSLRAEDTAVYYCARGGSDTVIGDWFAYWGQGTLVTVSS
VL: EVGSYDTDYDFCPILRHRCDSSGRSAGGGGSPLGLAGSGGSDIQLTQSPSSLSASVGDRVTITCRASQSIGSYLAWYQQKPGKAPKLLIYDASNLETGVPSRFSGSGSGTDFTLTISSLQPEDFATYYCQQGYYLWTFGQGTKVEIK
notes: as for B2
B7: in experiment [1], the Masking efficiency worked out at 83.7. In addition, a half-maximal effect in experiment [2] (EC50) was put at 23.6 nM.

B8: TY22595 (antibody, V domains shown)
VH: EVQLVESGGGLVQPGGSLRLSCAASGFSLSTGGVGVGWIRQAPGKGLEWLALIDWADDKYYSPSLKSRLTISRDNSKNTLYLQLNSLRAEDTAVYYCARGGSDTVIGDWFAYWGQGTLVTVSS
VL: EVGSYNDYNYHCKWRPSRCHNSGRSAGGGGSPLGLAGSGGSDIQLTQSPSSLSASVGDRVTITCRASQSIGSYLAWYQQKPGKAPKLLIYDASNLETGVPSRFSGSGSGTDFTLTISSLQPEDFATYYCQQGYYLWTFGQGTKVEIK
notes: as for B2
On to B8, for which, in experiment [1], the Masking efficiency is 379. For the same molecule, in experiment [2], a half-maximal effect (EC50) was put at 107 nM.

B9: TY22404 (antibody, IgG1, V domains shown)
VH: EVQLVESGGGLVQPGGSLRLSCAASGYSISSGYHWSWIRQAPGKGLEWLARIDWDDDKYYSTSLKSRLTISRDNSKNTLYLQLNSLRAEDTAVYYCARSYVYFDYWGQGTLVTVSS
VL: EVGSYPNPSSDCVPYYYACAYSGRSAGGGGSPLGLAGSGGSDIQLTQSPSSLSASVGDRVTITCRASQSVRGRFLAWYQQKPGKAPKLLIYDASNRATGIPSRFSGSGSGTDFTLTISSLQPEDFATYYCQQSSSWPPTFGQGTKVEIKR
notes: IgG1 from HEK293F cells, uncleaved; also called peptide name B13197
Regarding B9, the Masking efficiency turned out to be 385 in experiment [3] and 826 in experiment [4].

B10: TY22564 (antibody, V domains shown)
VH: EVQLVESGGGLVQPGGSLRLSCAASGYSISSGYHWSWIRQAPGKGLEWLARIDWDDDKYYSTSLKSRLTISRDNSKNTLYLQLNSLRAEDTAVYYCARSYVYFDYWGQGTLVTVSS
VL: EVGSYYSAYPACDSHYPYCNSAGRSAGGGGSPLGLAGSGGSDIQLTQSPSSLSASVGDRVTITCRASQSVRGRFLAWYQQKPGKAPKLLIYDASNRATGIPSRFSGSGSGTDFTLTISSLQPEDFATYYCQQSSSWPPTFGQGTKVEIKR
notes: IgG1, uncleaved; mask derived from B13192 or B13197 to remove a potential glycosylation site
Turning to B10, the Masking efficiency in experiment [5] was 117.

B11: TY22563 (antibody, V domains shown)
VH: EVQLVESGGGLVQPGGSLRLSCAASGYSISSGYHWSWIRQAPGKGLEWLARIDWDDDKYYSTSLKSRLTISRDNSKNTLYLQLNSLRAEDTAVYYCARSYVYFDYWGQGTLVTVSS
VL: EVGSYYSAYPACDSHYPYCQSSGRSAGGGGSPLGLAGSGGSDIQLTQSPSSLSASVGDRVTITCRASQSVRGRFLAWYQQKPGKAPKLLIYDASNRATGIPSRFSGSGSGTDFTLTISSLQPEDFATYYCQQSSSWPPTFGQGTKVEIKR
notes: as for B10
With B11, in experiment [5], the Masking efficiency was determined as 144.

B12: TY22566 (antibody, V domains shown)
VH: EVQLVESGGGLVQPGGSLRLSCAASGYSISSGYHWSWIRQAPGKGLEWLARIDWDDDKYYSTSLKSRLTISRDNSKNTLYLQLNSLRAEDTAVYYCARSYVYFDYWGQGTLVTVSS
VL: EVGSYPNPASDCVPYYYACAYSGRSAGGGGSPLGLAGSGGSDIQLTQSPSSLSASVGDRVTITCRASQSVRGRFLAWYQQKPGKAPKLLIYDASNRATGIPSRFSGSGSGTDFTLTISSLQPEDFATYYCQQSSSWPPTFGQGTKVEIKR
notes: as for B10
B12: in experiment [5], the Masking efficiency is 489.

B13: TY22402 (antibody, IgG1, V domains shown)
VH: EVQLVESGGGLVQPGGSLRLSCAASGYSISSGYHWSWIRQAPGKGLEWLARIDWDDDKYYSTSLKSRLTISRDNSKNTLYLQLNSLRAEDTAVYYCARSYVYFDYWGQGTLVTVSS
VL: EVGSYIVHHSDCDAFYPYCDSSGRSAGGGGSPLGLAGSGGSDIQLTQSPSSLSASVGDRVTITCRASQSVRGRFLAWYQQKPGKAPKLLIYDASNRATGIPSRFSGSGSGTDFTLTISSLQPEDFATYYCQQSSSWPPTFGQGTKVEIKR
notes: IgG1 from HEK293F cells, uncleaved; also called peptide name B13180
As for B13, the Masking efficiency in experiment [3] was found to be 377; in experiment [4], 2210.

B14: TY22401 (antibody, V domains shown)
VH: EVQLVESGGGLVQPGGSLRLSCAASGYSISSGYHWSWIRQAPGKGLEWLARIDWDDDKYYSTSLKSRLTISRDNSKNTLYLQLNSLRAEDTAVYYCARSYVYFDYWGQGTLVTVSS
VL: EVGSYNFVADSCPDHPYPCSASGRSAGGGGSPLGLAGSGGSDIQLTQSPSSLSASVGDRVTITCRASQSVRGRFLAWYQQKPGKAPKLLIYDASNRATGIPSRFSGSGSGTDFTLTISSLQPEDFATYYCQQSSSWPPTFGQGTKVEIKR
notes: IgG1 from HEK293F cells, uncleaved; also called peptide name B13189
As for B14, the results for the Masking efficiency in experiment [3] and in experiment [4] were 48 and 110, respectively.

B15: TY22565 (antibody, V domains shown)
VH: EVQLVESGGGLVQPGGSLRLSCAASGYSISSGYHWSWIRQAPGKGLEWLARIDWDDDKYYSTSLKSRLTISRDNSKNTLYLQLNSLRAEDTAVYYCARSYVYFDYWGQGTLVTVSS
VL: EVGSYPQPSSDCVPYYYACAYSGRSAGGGGSPLGLAGSGGSDIQLTQSPSSLSASVGDRVTITCRASQSVRGRFLAWYQQKPGKAPKLLIYDASNRATGIPSRFSGSGSGTDFTLTISSLQPEDFATYYCQQSSSWPPTFGQGTKVEIKR
notes: as for B10
B15: the Masking efficiency in experiment [5] was 632.
